This note sets out measurements from patent US20110150861A1.

This test concerns the target human TNFalpha (human) (UniProt P01375). Nature of the test: SPR (BiaCore), antibody purified by protein A and SEC. For orientation: SPR reads the build-up and loss of mass on a sensor chip optically.
Sequence of UniProt P01375 (P01375 77-233 limits assumed): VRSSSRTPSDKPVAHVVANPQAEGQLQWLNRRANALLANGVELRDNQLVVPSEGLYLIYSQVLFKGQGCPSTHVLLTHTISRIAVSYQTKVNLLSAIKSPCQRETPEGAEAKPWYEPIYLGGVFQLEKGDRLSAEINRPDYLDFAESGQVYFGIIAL

Broadly, the Kd is the free concentration of one partner at which half of the binding sites on the other are occupied at equilibrium, for simple one-to-one binding. Read a low Kd as a tighter complex. As usually defined, the koff is the rate constant with which the complex falls apart. A lower koff goes with slow dissociation. One may read the kon as a measure of how fast the partners come together. Low values mean slow association, high ones fast association. As to “D2E7 antibody product secreted from sORF construct pTT3-pfu lon HL (-)”, the Kd amounted to 0.0729 nM, the koff was found to be 0.00011 s⁻¹ and the kon amounted to 1.51e+06 M⁻¹ s⁻¹.
